In US20250277060A1 one finds % binding (tier threshold of column) and % of tumour cells positive data, which are given here for two molecules.

The target in assay [1] is canine IgM µ-chain antigen (protein accession number E2RE31) (canine (Canis lupus familiaris)). In words: flow cytometry screening of hybridoma clones on CLBL-1 cells. (Flow cytometry measures light scatter and fluorescence of single cells or particles in a stream.)
The target is the same in assay [2]. The assay can be described thus: staining of cells from CLBL-1 xenograft tumours.

A value given as a limit tells only on which side of the number the result lay.

B1: CL-m17A11 (antibody, V domains shown)
VH: QIQLQQSGPELVKPGASVKVSCKASGYSFTDYNIYWVKQSHGKSLEWIGFFDPHNGNTTYNQKFKGKATLTVDKSSSTAFMHLNSLTSEDSAVYYCAREGYLYAMDYWGQGTSVTVSS
VL: DVLMTQTPLSLPVSLGDQASISCRSSQSIEHSNGNTYLEWYLQKPGQAPKLLIFKVSNRFSGVPDRFSGSGSGTDFTLKISRMEAEDLGVYYCFQGSHVPPTFGGGTKLEIKR
As for B1, the % binding (tier threshold of column) in assay [1] is > 80%. In assay [2], the % of tumour cells positive was > 95%.

B2: CL-c17A11 (antibody, V domains shown)
VH: B1 VH
VL: B1 VL
Take B2: the % of tumour cells positive in assay [2] is > 95%.
